Data on 1 molecule can be found in patent US10682427B2, “Intra-operative imaging” (BRACCO IMAGING S.P.A., priority 2014, dated 2020).

In general, AUC(0-inf) refers to the area under the concentration-time curve extrapolated to infinity. One may read the Cmax as the highest concentration seen after dosing. Broadly, the Tmax is the time from dosing to the highest level. For orientation: clearance means the volume of plasma or blood freed of the substance per unit of time.

This data set is described as follows: Plasma kinetic after single intravenous administration (HPLC with fluorimetric detector). It is filed as in vivo, CD-1(ICR)BR mice. The following applies: mice; for plasma concentration (mean from a triplicate result): LOD=0.0012 nmol/mL; for clearance: read-out: total plasma clearance; for Vd: read-out: volume distribution at steady state (Vdss). The procedure: The plasma kinetic of the NIRF probe DA364 was evaluated after a single intravenous administration in CD-1(ICR)BR mice.
The fluorescent probe is administered at dose of 0.4 μmol/kg, corresponding to about 10 times the effective dose used in imaging studies (1 nmol/mouse, considering an average mouse body weight of 25 g). Animals were sacrificed at different time points up to and including 14 days after treatment and blood samples were collected for the determination of DA364 content, performed by using an HPLC method coupled with a fluorimetric detector.
The NIR agent DA364, pre-warmed at room temperature, was intravenously injected at a dose of 0.4 μmol/kg, via tail vein, at an injection rate of 1 mL/min with a Harvard infusion pump. The administered dose corresponds to about 10 times the effective dose used in imaging studies. The intravenous administration route was chosen as possible route of exposure for humans.
Animals (three for each time point) were sacrificed before and 5 min, 10 min, 20 min, 30 min, 60 min, 4 h, 24 h, 48 h, 7 days and 14 days after DA364.
The day of sacrifice animals were anesthetized with sevoflurane, at an expiratory concentration of 3-4% in induction and 2-3% in maintenance and then sacrificed by decapitation. Blood for HPLC determinations (at least 0.5 mL) was collected using heparinized tubes. Plasma obtained after centrifugation (2100 g for 10 min) was stored at −80° C. until the day of analysis.
Determination of the amount of DA364 in plasma samples was carried out by an HPLC method coupled with a fluorimetric detector previously prompted.
Plasma samples (S) were prepared by adding 100 μL of acetate buffer and 100 μL of a Methanol Acetonitrile solution (50:50) to 100 μL of diluted plasma. Tubes will be stirred and subsequently centrifuged at 4° C. for 10 minutes at 13000 g. Ten microliters of the clear supernatant will be injected into the HPLC equipment. Appropriate dilution was performed in case of plasma samples too concentrated.
The HPLC determination was performed by interpolating calibration curves of DA364 in plasma and organs, prepared by assaying calibration standard samples (CAL) (6 concentrations, 3 replicates for each concentration) of the fluorescent agent DA364.
Blood for HPLC determinations (at least 0.5 mL) was collected in heparinized tubes. Plasma concentration of DA364 was measured by an HPLC method coupled with a fluorimetric detector.
To evaluate the systemic exposure, Cmax and the area under the plasma DA364 concentration curve as a function of time (AUC) were calculated by non-parametric methods using the computer program WIN-NONLIN 6.3 (WinNonlin 6.3 SCI Software, Lexington, Ky., USA). For the tested dose, a non-compartmental analysis was performed using the average plasma concentrations from 3 animals for each time point. For Cmax and the corresponding tmax the observed values were reported. Area under the plasma concentration-time curve to the last observable plasma concentration (AUC(0 to t)) was calculated from observed data using the logarithmic trapezoidal method. […].

Setting [1] is: CD-1(ICR)BR, mouse, plasma, iv, 0.4 umol/kg, 0.4 μmol/kg i.v.
The mark [2] stands for this setting: CD-1(ICR)BR, mouse, plasma, iv, 0.4 umol/kg, 0.4 μmol/kg i.v., per animal.

Read-outs that look alike come from different tables or passages of the source. Some results are limits rather than exact numbers.

For `CC[N+]1=C(/C=C/C=C/C=C2/N(CCCCCC(=O)NC[C@@H]3C[C@@H]4CC[C@H]5C(=O)N[C@@H](CCCNC(=N)N)C(=O)NCC(=O)N[C@@H](CC(=O)O)C(=O)N[C@H]3C(=O)N45)c3ccc4c(S(=O)(=O)O)cc(S(=O)(=O)O)cc4c3C2(C)C)C(C)(C)c2c1ccc1c(S(=O)(=O)[O-])cc(S(=O)(=O)O)cc21` [DA364], the “plasma concentration (mean from a triplicate result)” value (“plasma concentration” below) (1440 min after 0.4 μmol/kg i.v.) was “<LOD”. Further, the “plasma concentration” value (2880 min after 0.4 μmol/kg i.v.) is recorded as “<LOD”. In addition, the “plasma concentration” value (10080 min after 0.4 μmol/kg i.v.) was “<LOD”. Moreover, the “plasma concentration” value (20160 min after 0.4 μmol/kg i.v.) is “<LOD”. In addition, under setting [1], the AUC(0-inf) is 1.28 µM·h, the Cmax came out at 1630 nM, the Tmax was 5 min and the clearance worked out at 5 mL/min/kg. Further, under setting [1], the Vd was determined as 0.329 L/kg. Also, under setting [2], the clearance came to 0.15 mL/min and the Vd turned out to be 0.01 L. Moreover, the half-life (CD-1(ICR)BR, mouse, plasma, iv, 0.4 umol/kg, 0.4 μmol/kg i.v., read-out: half life associated with the terminal elimination phase) stood at 64 min. Where the note is “CD-1(ICR)BR, mouse, plasma, iv, 0.4 umol/kg, 5 min after 0.4 μmol/kg i.v., read-out: plasma concentration (mean from a triplicate result)”, the level at time molar at 5 min amounted to 1630 nM. Besides, the level at time molar at 10 min (CD-1(ICR)BR, mouse, plasma, iv, 0.4 umol/kg, 10 min after 0.4 μmol/kg i.v., read-out: plasma concentration (mean from a triplicate result)) amounted to 1100 nM. Under “CD-1(ICR)BR, mouse, plasma, iv, 0.4 umol/kg, 20 min after 0.4 μmol/kg i.v., read-out: plasma concentration (mean from a triplicate result)”, the level at time molar at 20 min stood at 612 nM. Further, under “CD-1(ICR)BR, mouse, plasma, iv, 0.4 umol/kg, 30 min after 0.4 μmol/kg i.v., read-out: plasma concentration (mean from a triplicate result)”, the level at time molar at 0.5 h came out at 518 nM. Moreover, the level at time molar at 1 h (CD-1(ICR)BR, mouse, plasma, iv, 0.4 umol/kg, 60 min after 0.4 μmol/kg i.v., read-out: plasma concentration (mean from a triplicate result)) was determined as 278 nM. Further, the level at time molar at 4 h (CD-1(ICR)BR, mouse, plasma, iv, 0.4 umol/kg, 240 min after 0.4 μmol/kg i.v., read-out: plasma concentration (mean from a triplicate result)) worked out at 51 nM.
